Earlier results, collected in publication PMC4246237.
Like-named read-outs stand apart in the source and are kept apart here.

Assays:
AVP (Human adenovirus 2) [1] = biological target: AVP (Human adenovirus 2) (UniProt P03252)
AVP (Human adenovirus 2) [2] = biological target: AVP (Human adenovirus 2) (UniProt P03252); remark: listed apart in the source

UniProt P03252, sequence (P03252 whole entry): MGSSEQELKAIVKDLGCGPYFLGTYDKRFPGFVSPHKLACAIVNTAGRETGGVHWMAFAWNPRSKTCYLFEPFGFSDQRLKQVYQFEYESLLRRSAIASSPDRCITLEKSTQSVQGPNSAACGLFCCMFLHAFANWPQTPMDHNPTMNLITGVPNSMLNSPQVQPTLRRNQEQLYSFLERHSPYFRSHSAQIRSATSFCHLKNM

Substance: pVIc pVIc (from UniProt P03274)
- Kd (AVP (Human adenovirus 2) [1]): 90 nM
- Kd (AVP (Human adenovirus 2) [2]): 4400 nM
